Biological target: SARS-CoV 3C-like protease (3CL^pro) (SARS-CoV (strain CUHK-Su10)) (UniProt P0C6X7)
Assay: SEC; […] (20 mM Tris, 20 mM NaCl, pH 7.8); […]

SARS-CoV 3C-like protease (3CL^pro) (from UniProt P0C6X7 3241-3546) (enzyme)
stoichiometry N: 2
